# Results taken from paper doi:10.1101/2022.09.20.508747, “Affinity-matured homotypic interactions induce spectrum of PfCSP-antibody structures that influence protection from malaria infection” (bioRxiv, 2022).
# Residue numbers refer to the chain shown, from its start. Primed or numbered codes have the meaning given here. No end group written: not given here. Biotin′ = biotin
# T1: NPNA8 peptide, biotinylated (for BLI) (Plasmodium falciparum)
# T1 construct: source: synthetic peptide, InnoPep Inc
# T1 chain: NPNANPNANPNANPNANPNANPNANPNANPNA
# T2: NPNA4 peptide, biotinylated (for BLI) (Plasmodium falciparum)
# T2 construct: source: synthetic peptide, InnoPep Inc
# T2 chain: NPNANPNANPNANPNA-{Biotin′}
# T3: NPNA8 peptide (for cryo-EM) (Plasmodium falciparum)
# T3 construct: source: synthetic peptide, InnoPep Inc
# T3 chain: T1 chain
# B1: 239 Fab (Fab, V domains shown)
# VH: QVQLVESGGGVVQPGRSLRLSCAASRLTFRNFGMHWVRQTPGKGLEWVAVIWHDGSNKFYADSVEGRFTISRDNSKNTLYLQMNSLRDEDTAIYYCAKDWGGASDRVFDYWGRGTLVIVSS
# VL: DIQMTQSPSTLSASVGDRVTITCRASQSVSTSLAWYQQKPGKAPNLLIYQASTLYRGVPSRFSGSGSGTEFTLTIGSLQPDDFATYYCQHYNSYSRITFGQGTRLEIK
# notes: also called mAb 239; source: ExpiCHO cells, purified (mAb Select PrismA or Capture Select, SEC)
# B2: 239R Fab (Fab, V domains shown)
# VH: B1 VH with R30S, N31S, F32Y, E65K
# VL: B1 VL with R56T
# notes: also called germline-reverted 239; source: ExpiCHO cells, purified (mAb Select PrismA or Capture Select, SEC)
# B3: 311 Fab (Fab, V domains shown)
# VH: QVQLVESGGGVVPPGRSLRLSCATSGFTFSNYGMHWVRQAPGKGLEWVAIIWYDGSRNFYAASVEGRFTISRDNSKNTLYLQMNSLRVEDTAVYYCARAAYYDTSGYGDYWGQGTLVTVSS
# VL: QSVLTQPPSVSGAPGQTVTISCTGGSSNIGAGYDVHWYQQLPGTAPKLLIYGNINRPSGVPDRFSGSKSGTSASLAITGLQAEDEADYYCQSYDRRLSGSWVFGGGTKLTVL
# notes: source: ExpiCHO cells, purified (mAb Select PrismA or Capture Select, SEC)
# B4: 311R Fab (Fab, V domains shown)
# VH: B3 VH with N31S, R57N, N58K, E65K
# VL: B3 VL with R95S, R96S
# notes: also called Fab311R; germline-reverted 311; source: ExpiCHO cells, purified (mAb Select PrismA or Capture Select, SEC)
# B5: 356 Fab (Fab, V domains shown)
# VH: QVQLVESGGGVVQPGRSLRLSCAASGFTFRNFGMHWVRQTPGKGLEWVAVIWHDGSNKFYADSVEGRFTISRDNSKNMIYLQMNSLRVEDTAIYYCARDSLFYDHDNSGYYGYWGQGTLVTVSS
# VL: QIVMTQSPATVSVSPGERATLSCRASRSVTSKLAWYQQKPGQAPRLLIYGASTRATGIPARFSGSGSGTEFTLTISSLQSEDFAVYFCQQYNNGFTFGPGTKVDFK
# notes: also called mAb 356; source: ExpiCHO cells, purified (mAb Select PrismA or Capture Select, SEC)
# B6: 356R Fab (Fab, V domains shown)
# VH: B5 VH with R30S, N31S, F32Y, E65K
# VL: B5 VL with Q1E, R27Q
# notes: also called germline-reverted 356; source: ExpiCHO cells, purified (mAb Select PrismA or Capture Select, SEC)
# B7: 337 Fab (Fab, V domains shown)
# VH: QVQLVESGGGVVQPGRSLRLSCAASGFSFSTYGMHWVRQAPGKGLEWVALIWHDGSKKFYSESVRGRFTISRDNSMDTLYLQMSSLRAEDTAVYYCARDGADYFDSTGGAFDIWGQGTMVIVSS
# VL: EIVMTQSPATLSVSPGERATLSCRASQSVSSNLAWYQQKPGQAPRLLIYGASTRATGIPARFSGSGSGTEFTLTISSLQSEDFATYYCQQYKTWWTFGQGTKVEIK
# notes: also called mAb 337; source: ExpiCHO cells, purified (mAb Select PrismA or Capture Select, SEC)
# B8: 364 Fab (Fab, V domains shown)
# VH: QVQLVESGGGVVQPGGSLRLSCAASGFTFSGYGMHWVRQVPGKGLEWVAIIWFDGSQKYYADSVQGRFTISRDNSKKTLFLRMNSLRAEDTAVYYCAKVHDDEPTQDYWGQGTLVTVSS
# VL: DIQMTQSPSTLSASVGDRVTITCRASQGISTSLAWYQQKPGKAPKLLIYKASSLESGVPSRFSGSGSGTEFTLTITSLQPEDFATYYCQQYKRYWTFGQGTKVEIK
# notes: also called mAb 364; source: ExpiCHO cells, purified (mAb Select PrismA or Capture Select, SEC)
# B9: 334 Fab (Fab, V domains shown)
# VH: QVQLVESGGGVVQPGRSLTLSCAASGFTFSNYGMHWVRQTPGKGLAWVAIIWYDGSKTYYEDSVKGRFTISRDNSKNTLYLQMNSLRVDDTAVYYCARVRHSSSRHGSAFDLWGQGTLVTVSS
# VL: VIQMTQSPSTLSASVGDRVTITCRASQSVSTWLAWYQQKPGQGPKLLIYEASSLESGVPSRFSGSGSGTEFTLTISSLQPDDFATYYCQQYNSYSFWTFGQGTKVEIK
# notes: also called mAb 334; source: ExpiCHO cells, purified (mAb Select PrismA or Capture Select, SEC)
# B10: 227 Fab (Fab, V domains shown)
# VH: QVQLVQSGGGVVQPGRSLRLSCVTSGFTFPAFGMHWVRQAPGKGLEWVAVIWYDGSKKYYADSVRGRFTISRDNSRNTLYLQMHSLRAEDTAVYYCARVKNYESSGYSQCLDYWGQGVLVTVAS
# VL: QSVLTQPPSVSGAPGQRVTISCTGSSSNIGAGYDVHWYQQLPGTAPKLLIYGNGNRPSGVPDRFSGSKSGTSVSLAITGLQAEDEADYYCQSYDSSLSAFVFGTGTKVTVL
# notes: also called mAb 227; source: ExpiCHO cells, purified (mAb Select PrismA or Capture Select, SEC)
# Target: T1, NPNA8 peptide, biotinylated (for BLI)
# Experiment: BLI
# Settings: both partners purified
row,Binder,binding result
1,B1,binds
2,B2,binds
3,B3,binds
4,B4,binds
5,B5,binds
6,B6,binds
7,B7,binds
8,B8,binds
9,B9,binds

# Target: T2, NPNA4 peptide, biotinylated (for BLI)
# Experiment: BLI
# Settings: both partners purified
Binder,binding result,fold lower apparent affinity than 239 [fold],fold higher apparent affinity than 356 [fold]
B1,binds,–,–
B2,–,~2,–
B3,binds,–,–
B4,binds,–,–
B5,binds,–,–
B6,–,–,~2
B7,binds,–,–
B8,binds,–,–
B10,binds,–,–
B9,binds,–,–

# Target: T3, NPNA8 peptide (for cryo-EM)
# Experiment: cryo-EM structure
# Settings: both partners purified
row,Binder,stoichiometry N [Fabs per NPNA8 peptide]
1,B10,4
